Measurements: publication PMC12664392 (iScience, 2025)

How the values were obtained:
CD3ε = CD3ε (UniProt P07766 23-207, SPR construct not described; extracellular domain taken by convention from the UniProt topology. In cell assays CD3ε is full mature chain in the TCR/CD3 complex); assay: SPR; Listed KD-values were obtained by surface plasmon resonance; format, CD3ε construct and conditions not told
[1] = target: HLA-A*0201/NY-ESO1(157-165)(9V) complex, refolded and biotinylated (human, p9C to valine (9V) (stands in the printed letters), biotin on the Avi tag); assay: SPR; ProteOn; the methods tell an inverse set-up (MRGS-6His tagged DARPin captured by an immobilised RGS-His antibody on a GLC chip) and also HLA-A*0201/peptide targets on a neutravidin chip at different dilutions; HEPES buffer; details: both partners purified

CD3ε, sequence (P07766 23-207): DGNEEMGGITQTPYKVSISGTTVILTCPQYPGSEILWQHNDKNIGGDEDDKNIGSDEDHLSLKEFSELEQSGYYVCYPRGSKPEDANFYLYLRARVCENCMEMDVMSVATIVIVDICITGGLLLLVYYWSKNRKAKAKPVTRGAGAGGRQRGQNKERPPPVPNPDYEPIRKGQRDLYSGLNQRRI

Row | Binder | Kd (CD3ε) [nM] | Kd [1] [nM] | koff [1] [s⁻¹] | kon [1] [M⁻¹ s⁻¹]
1 | CD3ε-specific DARPin version 1 (designed binder, four repeats (N-cap/ IR1/ IR2/ C-cap) joined in the printed order; also called CD3-v1; variant-1 (v1)) DLGQKLLEAAWAGQDDEVRELLKAGADVNAKNSRGWTPLHTAAQTGHLEIFEVLLKAGADVNAKDDKGVTPLHLAAALGHLEIVEVLLKAGADVNAQDSWGTTPADLAAKYGHEDIAEVLQKAA | 35 ± 21 | – | – | –
2 | CD3ε-specific DARPin version 3 (designed binder, four repeats (N-cap/ IR1/ IR2/ C-cap) joined in the printed order; also called CD3-v3; CD3v3) DLGQKLLEAAWAGQLDEVRILLKAGADVNAKNSRGWTPLHTAAQTGHLEIFEVLLKAGADVNAKTNKRVTPLHLAAALGHLEIVEVLLKAGADVNARDTWGTTPADLAAKYGHRDIAEVLQKAA | 6 | – | – | –
3 | CD3ε-specific DARPin version 2 (designed binder, four repeats (N-cap/ IR1/ IR2/ C-cap) joined in the printed order; also called CD3-v2; CD3v2) DLGQKLLEAAWAGQDDEVRELLKAGADVNAKNSRGWTPLHTAAQTGHLEIFEVLLKAGADVNAKNDKRVTPLHLAAALGHLEIVEVLLKAGADVNARDSWGTTPADLAAKYGHQDIAEVLQKAA | 14 ± 3 | – | – | –
4 | NY_1xCD3 (bispecific DARPin T cell engager: HLA-A*0201/NY-ESO1(157-165)-specific DARPin NY_1 linked to a CD3ε-specific DARPin) (designed binder) DLGKKLLQAARAGQLDEVRELLKAGADVNAKDLIGVTPLHLAAFSGHLEIVEVLLKASADVNAKDVSGRTPLHVAAKHGHLEIVEVLLKAGADVNAKDLIGFTPLHLAAQFGHLEIVEVLLKAGADVNAQDKSGKTPADLAARAGHQDIAEVLQKAAGSPTPTPTTPTPTPTTPTPTPTGSDLGQKLLEAAWAGQDDEVRELLKAGADVNAKNSRGWTPLHTAAQTGHLEIFEVLLKAGADVNAKNDKRVTPLHLAAALGHLEIVEVLLKAGADVNARDSWGTTPADLAAKYGHQDIAEVLQKAA | – | 1.23 | 0.00113 | 925000
